Measured values from patent publication US20080227698A1, “OLIGOPEPTIDES FOR TREATMENT OF OSTEOPOROSIS AND OTHER BONE DISEASES AND METHODS THEREOF” (Washington University, priority 2005, published 2008).

Columns and labels:
[1] = target: T1, other members of the LDLR family (LDLR, LRP, LRP1 B, VLDLR, apoER2) (Homo sapiens, UniProt Q07954); assay: ^125I-Mesd binding to cells expressing other members of the LDLR family; conditions: ^125I-Mesd 5 nM, 4 hours at 4° C.
T1 construct: expressed in transfected cells; host or cells: HEK293 (transient HA-LDLR); also endogenous receptors in MEF lines, MCF-7, U87 and SMC
Protocol: (§1) Cells (2×10^5) were seeded into 12-well dishes 1 day prior to assay. Ligand-binding buffer (minimal Eagle's medium containing 0.6% BSA with a different concentration of radioligand, 0.6 ml/well) was added to cell monolayers, in the absence or the presence of 500 nM unlabeled RAP or 500 nM unlabeled Mesd, followed with incubation for 0-4 hours at 4° C. Thereafter, overlying buffer containing unbound ligand was removed, and cell monolayers were washed and lysed in low-SDS lysis buffer (62.5 mM Tris-HCl pH 6.8, 0.2% SDS, 10% v/glycerol) and counted.
(§2) To determine whether Mesd binds to other members of the LDLR family, ^125I-Mesd binding analysis was performed with four groups of cells expressing different members of the LDLR family (FIG. 2). In the first experiment, HEK293 cells were transiently transfected with cDNAs for the LDLR, LRP5, LRP6 or empty pcDNA3 vector. […]

[2] = system: other members of the LDLR family (LDLR, LRP, LRP1 B, VLDLR, apoER2); assay: as above; set-up: species or system human; conditions: ^125I-Mesd 5 nM, 4 hours at 4° C., HEK293, CHO, MEF cells
Protocol: as §1, §2

LRP6 = LRP6 (Homo sapiens, UniProt O75581); assay: ^125I-DKK1 binding to LRP6-transduced HT1080 cells; set-up: plasmid pCS-Myc-hLRP6 containing the full-length human LRP6 cDNA; HA; expressed in transfected cells; host or cells: human HT1080 cells, stably transduced (pLNCX2 retroviral vector); conditions: 500 nM competitor, ^125I-DKK1 5 nM, 3 hours at 4° C.
Protocol: as §1
RAP is a receptor antagonist for members of the LDLR family, and is able to inhibit the binding of most known ligands of the LDLR family members. […] In these experiments, Serum-free conditioned medium was harvested from HEK293 cells transiently transfected with cDNA for human Myc-DKK1 and allowed to bind to LRP6-transduced HT1080 cells (B,C) and control cells (A) in the absence (A,B) or presence (C) of 1 μM Mesd. Cell-surface-bound Myc-tagged DKK proteins were fixed and detected by immunofluorescence staining with anti-Myc antibody. […] Binding of 125I-DKK1 (5 nM) to LRP6-transduced HT1080 cells or the control cells was carried out for 3 hours at 4° C. in the absence (total) or presence of 500 nM RAP or 500 nM Mesd. […] LRP6-mediated 125I-Mesd (5 nM) degradation was carried out for 4 hours at 37° C. in the absence or presence of 500 nM RAP or 500 nM Mesd. Values are the means of triple determinations with the s.d. indicated by error bars. Bar, 10 μm.

T1 sequence (Q07954 20-4544): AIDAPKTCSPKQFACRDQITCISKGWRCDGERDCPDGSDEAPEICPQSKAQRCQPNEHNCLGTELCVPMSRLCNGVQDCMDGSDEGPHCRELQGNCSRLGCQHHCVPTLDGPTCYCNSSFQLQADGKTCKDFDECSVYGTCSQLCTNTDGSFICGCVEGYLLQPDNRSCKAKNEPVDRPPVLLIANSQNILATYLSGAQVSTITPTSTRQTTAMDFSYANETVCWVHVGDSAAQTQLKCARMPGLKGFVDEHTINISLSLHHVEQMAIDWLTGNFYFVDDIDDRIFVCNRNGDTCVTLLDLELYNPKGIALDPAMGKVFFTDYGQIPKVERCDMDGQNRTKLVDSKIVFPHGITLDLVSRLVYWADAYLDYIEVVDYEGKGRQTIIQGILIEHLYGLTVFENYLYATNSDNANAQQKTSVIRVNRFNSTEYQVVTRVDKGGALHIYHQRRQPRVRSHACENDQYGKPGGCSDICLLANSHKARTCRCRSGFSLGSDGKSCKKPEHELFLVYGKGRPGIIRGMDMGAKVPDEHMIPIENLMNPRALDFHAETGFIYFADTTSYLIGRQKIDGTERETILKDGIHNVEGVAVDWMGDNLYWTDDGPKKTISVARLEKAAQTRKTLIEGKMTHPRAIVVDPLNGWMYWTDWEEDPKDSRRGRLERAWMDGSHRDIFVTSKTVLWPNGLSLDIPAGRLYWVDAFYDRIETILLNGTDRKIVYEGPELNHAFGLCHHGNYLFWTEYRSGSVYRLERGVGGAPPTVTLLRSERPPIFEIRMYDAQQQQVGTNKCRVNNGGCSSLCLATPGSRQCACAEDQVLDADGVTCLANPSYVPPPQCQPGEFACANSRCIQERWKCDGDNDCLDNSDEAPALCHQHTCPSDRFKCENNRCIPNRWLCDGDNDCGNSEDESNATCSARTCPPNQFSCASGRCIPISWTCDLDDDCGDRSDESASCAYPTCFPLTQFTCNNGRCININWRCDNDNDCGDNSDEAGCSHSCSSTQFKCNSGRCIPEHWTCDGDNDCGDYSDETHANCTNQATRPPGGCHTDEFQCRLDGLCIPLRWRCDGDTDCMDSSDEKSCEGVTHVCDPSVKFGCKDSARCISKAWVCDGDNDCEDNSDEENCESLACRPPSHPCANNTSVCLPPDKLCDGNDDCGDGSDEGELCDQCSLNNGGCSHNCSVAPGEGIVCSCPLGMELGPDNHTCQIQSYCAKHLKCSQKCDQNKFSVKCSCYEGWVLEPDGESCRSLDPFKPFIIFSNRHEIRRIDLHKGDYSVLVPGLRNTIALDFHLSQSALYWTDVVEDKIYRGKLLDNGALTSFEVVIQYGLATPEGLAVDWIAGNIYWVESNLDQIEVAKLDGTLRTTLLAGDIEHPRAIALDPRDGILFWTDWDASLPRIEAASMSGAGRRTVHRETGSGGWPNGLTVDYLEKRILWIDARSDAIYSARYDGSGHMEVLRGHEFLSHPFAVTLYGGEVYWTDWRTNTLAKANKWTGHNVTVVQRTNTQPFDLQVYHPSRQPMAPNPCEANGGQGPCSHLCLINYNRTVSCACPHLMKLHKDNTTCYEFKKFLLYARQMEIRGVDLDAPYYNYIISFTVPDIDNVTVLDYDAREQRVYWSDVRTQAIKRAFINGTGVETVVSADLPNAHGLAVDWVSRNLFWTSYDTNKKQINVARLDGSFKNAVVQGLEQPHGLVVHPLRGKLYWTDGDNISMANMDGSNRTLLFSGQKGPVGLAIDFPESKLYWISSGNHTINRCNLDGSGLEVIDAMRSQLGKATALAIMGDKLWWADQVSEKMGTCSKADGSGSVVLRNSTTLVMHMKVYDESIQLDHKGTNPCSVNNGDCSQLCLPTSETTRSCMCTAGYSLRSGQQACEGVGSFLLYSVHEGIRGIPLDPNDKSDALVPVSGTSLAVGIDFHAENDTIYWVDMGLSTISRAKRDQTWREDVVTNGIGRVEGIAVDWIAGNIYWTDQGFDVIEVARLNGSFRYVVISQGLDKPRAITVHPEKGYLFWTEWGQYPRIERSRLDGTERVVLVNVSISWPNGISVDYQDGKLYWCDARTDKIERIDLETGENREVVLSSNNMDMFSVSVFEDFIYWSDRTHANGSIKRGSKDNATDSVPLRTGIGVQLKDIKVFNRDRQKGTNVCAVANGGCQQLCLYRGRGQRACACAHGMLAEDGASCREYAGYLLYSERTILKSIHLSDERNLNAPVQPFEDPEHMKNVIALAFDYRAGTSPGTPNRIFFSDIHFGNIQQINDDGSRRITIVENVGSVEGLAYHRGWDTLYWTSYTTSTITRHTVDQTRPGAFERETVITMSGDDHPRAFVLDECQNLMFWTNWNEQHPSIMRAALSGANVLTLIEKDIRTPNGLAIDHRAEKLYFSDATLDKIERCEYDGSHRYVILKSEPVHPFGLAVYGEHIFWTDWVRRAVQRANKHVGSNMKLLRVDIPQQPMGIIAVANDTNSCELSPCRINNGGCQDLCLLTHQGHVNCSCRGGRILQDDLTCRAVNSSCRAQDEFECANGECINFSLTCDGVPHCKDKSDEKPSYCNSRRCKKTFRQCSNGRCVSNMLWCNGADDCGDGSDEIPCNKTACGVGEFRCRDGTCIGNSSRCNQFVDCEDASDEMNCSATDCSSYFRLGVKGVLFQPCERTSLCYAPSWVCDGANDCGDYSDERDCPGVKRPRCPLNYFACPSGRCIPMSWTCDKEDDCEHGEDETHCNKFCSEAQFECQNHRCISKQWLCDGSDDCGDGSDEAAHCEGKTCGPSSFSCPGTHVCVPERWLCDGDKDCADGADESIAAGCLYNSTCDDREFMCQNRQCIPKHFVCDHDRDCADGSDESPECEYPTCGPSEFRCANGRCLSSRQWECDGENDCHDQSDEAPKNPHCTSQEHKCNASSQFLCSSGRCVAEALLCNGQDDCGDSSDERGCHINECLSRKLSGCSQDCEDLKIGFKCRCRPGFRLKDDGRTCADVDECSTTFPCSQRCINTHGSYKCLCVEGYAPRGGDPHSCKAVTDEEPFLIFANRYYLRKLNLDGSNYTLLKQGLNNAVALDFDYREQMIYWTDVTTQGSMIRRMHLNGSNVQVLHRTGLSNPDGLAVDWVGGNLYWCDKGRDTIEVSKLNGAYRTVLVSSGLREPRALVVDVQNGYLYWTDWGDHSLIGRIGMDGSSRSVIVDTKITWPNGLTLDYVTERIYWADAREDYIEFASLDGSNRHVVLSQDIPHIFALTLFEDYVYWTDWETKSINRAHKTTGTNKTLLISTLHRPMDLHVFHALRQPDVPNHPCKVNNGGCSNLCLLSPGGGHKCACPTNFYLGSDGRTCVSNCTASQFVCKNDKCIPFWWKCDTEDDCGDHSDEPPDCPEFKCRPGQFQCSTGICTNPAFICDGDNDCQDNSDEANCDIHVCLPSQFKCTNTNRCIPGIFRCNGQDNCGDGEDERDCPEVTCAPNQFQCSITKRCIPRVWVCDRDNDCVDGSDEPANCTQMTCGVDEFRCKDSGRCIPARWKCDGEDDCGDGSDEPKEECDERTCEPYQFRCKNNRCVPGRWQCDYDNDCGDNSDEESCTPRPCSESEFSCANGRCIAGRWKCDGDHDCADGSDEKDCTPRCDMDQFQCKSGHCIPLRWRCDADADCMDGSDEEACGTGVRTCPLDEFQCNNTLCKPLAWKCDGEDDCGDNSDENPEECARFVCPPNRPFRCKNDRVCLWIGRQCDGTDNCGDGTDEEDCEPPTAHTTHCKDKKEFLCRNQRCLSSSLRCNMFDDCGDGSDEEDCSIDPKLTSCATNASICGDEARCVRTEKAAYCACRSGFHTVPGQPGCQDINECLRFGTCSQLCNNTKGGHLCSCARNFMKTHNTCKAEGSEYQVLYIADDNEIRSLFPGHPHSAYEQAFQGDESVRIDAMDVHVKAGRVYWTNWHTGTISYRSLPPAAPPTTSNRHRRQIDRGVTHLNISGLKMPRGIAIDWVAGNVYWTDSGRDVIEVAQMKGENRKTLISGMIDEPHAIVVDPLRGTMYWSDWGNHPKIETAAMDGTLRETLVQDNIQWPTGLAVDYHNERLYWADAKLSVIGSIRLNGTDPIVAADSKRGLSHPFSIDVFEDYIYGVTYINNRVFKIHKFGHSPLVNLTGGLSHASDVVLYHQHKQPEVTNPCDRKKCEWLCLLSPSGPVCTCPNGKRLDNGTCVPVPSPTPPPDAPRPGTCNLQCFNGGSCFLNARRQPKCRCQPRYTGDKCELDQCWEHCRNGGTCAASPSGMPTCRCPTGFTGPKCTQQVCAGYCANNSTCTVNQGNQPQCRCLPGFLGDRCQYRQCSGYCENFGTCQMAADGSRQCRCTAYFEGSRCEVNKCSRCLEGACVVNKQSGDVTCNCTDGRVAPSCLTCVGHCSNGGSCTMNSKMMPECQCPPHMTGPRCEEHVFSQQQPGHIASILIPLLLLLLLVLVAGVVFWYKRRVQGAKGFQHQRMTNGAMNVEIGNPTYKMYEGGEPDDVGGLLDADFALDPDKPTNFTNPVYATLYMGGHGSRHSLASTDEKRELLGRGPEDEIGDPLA

B1: Mesd: recombinant wild-type mouse Mesd, polyhistidine tail at the N-terminus, lacks the signal peptide, expressed in E. coli (protein)
chain: ADTPGEATPPPRKKKDIRDYNDADMARLLEQWEKDDDIEEGDLPEHKRPSAPIDFSKLDPGKPESILKMTKKGKTLMMFVTVSGNPTEKETEEITSLWQGSLFNANYDVQRFIVGSDRAIFMLRDGSYAWEIKDFLVSQDRCAEVTLEGQMYPGKGGGSKEKNKTKPEKAKKKEGDRKPRASKEDNRAGSRREDL
modifications: left off: small tags and cut ends
notes: recombinant wild-type mouse Mesd, polyhistidine tail at the N-terminus, lacks the signal peptide, expressed in E. coli
Specific Mesd binding to U87 or SMC (express abundant LRP) [1]: minimal | ^125I-Mesd binding to other members of the LDLR family [2]: not significantly | Effect of excess unlabeled competitor on increased DKK1 binding (LRP6): abolished
